Assay results published in patent US20230226096A1 (Orna Therapeutics, Inc., priority 2020, published 2023).

B1: Tremovirus B (nucleic acid)
DNA: TTCAAATGGCCCCTGGGTTGATACCCAGTGGTCATTTGGACACTTTGGTAAGGAGGTGTAATTATCCTTCCCATGTGGAACCTAGTGCTTAGGTTTACTTTATATGTTCTTTGTTTGTCCTTTGTACTTTCTATCGGGCAATCTTGTTGTTCAATACAATATGTATTTGAACTGCCTAAGATAAATTCAGTTTTCAACCAACCCCTCTCTTGGGGTTGTGTCTTTCTTTCTTTCTTATATCCTCTTAAGCTGACTTACTTGCTAATCCGACTCCTCGTCAACGGGAGGGTAAAGCAGTATCACTAGGGTATTGTGATGTAGGAGAAAAAGTAAGTAGAGATAGTGCATGTAACGAAAGTGACTTGGTACTTTAAACTCTCTTAATCCCAAAGTGTGGTATTGGTCATGTTGGAGTAGGCTACGGGTGAAACTCCTTCACATTTAGTAATGTGTTCACACGCTAACGCTACGGTAGATGACAGACTAGGTCTTATTCTCAACGTAGGGGGACGGGTGTATGTTCATGATTAGCCACATATTAAGGTTTTGAGGGGCTGAGTCATATAAGTATGTGCATTAATTTCTGGTACTGGTCCCTGGGGACTGGCCCTTTTCTAGGTTGATTTTAGTTTCCCCAATTTTTAAAAACTAATGAGATTTACGAC
modifications: Tremovirus B
B2: Hepatovirus G1 (nucleic acid, listed as Hepatovirus sp.)
DNA: GCAAGGGGTGGTTTTAACCTTGCACGCGTTTACCGTGCGTTAACGGTTTTCCATGTTTGTATGTCTTGTTTGTATTATGTGTTTTGTAAATATTAATTCCTGCAGGTTCAGGGTTCTTTAATCATGTTGGGCTGTACCCACACTCAACTTTTGGCCATAAGTGAGTTTCTTAACGAACCTTTTAACACAGGATGTTATTAGGGCCCAATATTTTCCCTGAGGCCTTCTTTGGCCTCTATTTTTTCCCCTTTTCTATCTCCTTGTATTCCGGGCTCACGTGATGCCAATGGACTGACCCATGCGCCCGTGGGGGTTAACTACTGGAGTAGCCAGTAGCTGTAGGTGCTAAAAGTCACGTACGTGTAAGACTGGACGAGACCTCTCAGCTATAACTGAAAGTAGTAAGTATGTCTGAACTTCTTGAAGGGGTAGGCTACGGGTGAAACCCCTTAGGTTAATACTCATATTGAGAGATACCTCTGATAGGTGAAGGTTTCCGGTAGAGGTGAGTTTAACGACAAAGCCTCTCAACGGATGTGGGCCCACCTCATCAGCAAGATGCTTTCATACCCAATACCGTAGGGGCTGGGTTGTTGAGTTCAGTCCCAAGCGTCCCTCCCGCAAGGTTGTAGGGGTACTCAGGGGCATTTAGGTTTCCACAATTAAACAAATACA
B3: Hepatovirus I (nucleic acid)
DNA: GGCTGCCTGTGTCTCAGGGGTAAGTACTGGGGCCGCGTTGACCGTGCGGTACGGTTATGCTTTTAGATTAGGATGTCCGTCTGTCCGGCACTCTCTTTTGCTTAAAATGGCCTTAAATCCATGGGAGGCGTAACCATGGGCCCTTTGTTACCTAGACATGATTGCATTGGGGGCCGTCCTTGGGGCTTAGGCCCCAGCCATTTCTCTTGACTCGTCTAAGAGTTTACTTCATCCTTTTCTTTACTTTATTTTCCAGGCTCTCAGCATGCCGACGGCTCTGACCACTGCGCCCGGTGGGGTTAACTGCATGATTAGCATGCAGCTGTAGGAGTTAAAAGTGCTGACAGGCCAATTCTGACGTAAGTCCACTCTATATTAACTTGATCAAGTAAGGTTGATTGATCTTTGTGAGAGGGTAGGCTACGGGTGAAACCCTCTAGGTTAATACTCATATTGAGAGATACCTCCAGAAGGTGAAGGTTGGCGGATATTGGTGAGTTCTTTTAGGACAAAAACCTTTCAACGCCTGTGGGCCCACCTCACTGGCACAATGCTTTCATCCCCAATTGTGATGGGTAGTTTGGACTGAAATCAGGAGTAACCTGCCCTACGAGTTTAGGGGTAGTTCAGGGGTATTTAGGCTTCCACATTTGATAGAGTTTATGAGAGTGAGCC
modifications: Hepatovirus I
B4: Didelphis aurita HAV (nucleic acid)
DNA: TCTTTGGTCTGGGGAACTAAAATACCAGACCCGCGTTTGCCTAGCGATATAGGCTTTAATTGTTGTTTGTCATTGTGCGTTTGATATGTGTTTTAATGTAAATAATAATTCTAGCAGGTTCTAGTTCTTGATCATGTCCTCTTTAAGGCACTCATTTCAACTTGCTATCTTTCTTTTCTTCCTTGGTTCTCCCTACACCAAATGCACTGGCCGCTGCGCCCGGCGGGGTCAACCACATGATTAGCATGTGGCTGTAGGTGTTGAAGGCTGGGACATGAACATCAATGGAATAGTGCGCATGCTTACTGGGGTCCATTGAAGTAGTGGGATCTTTCTATTGGGGTAGGCTACGGGTGAAACCCCTTAGGTTAATACTCATATTGAGAGATACCTTGGATAGGTTAACTGTGCTGGATATGGTTGAGTTTAACGACAAAAAGCCATCAACAGCTGTGGACAGAACCTCATCCTTAGATTGCTCACTATGGATATGTGCTCTGGGCGTGTTTCTTGCATGATGGCCATTGGTCAATTCATGCCTGGGCCAATGTAGGATTAGCCTTAAATTACTTTTTAAAAGTAGCCTCATTTAGCTGGACTAATGGTGGGGCGTATGATCCTGCATTTGGCCTCTGGGGTAATCAGGGGCATTTAGGTTTCCACATAATAGCAAAT
modifications: Hepatovirus A
B5: Fipivirus A (nucleic acid)
DNA: TGCGGGTAAACTCCCGCATGTGTGAATGAGGCGATGTCCCAGGAACTAACTGCCGATCCTGGTTTTAACTACGATCCGTATTTGTTACTAATGCGATATCCCCCCATTGTTTGCCTCCATGTTGTTTTCAACGCTTTTGGCCTTGAGTGTTATCAAGTGTTTTAGCGACATAGTGGGAAGCTACGGCTGCGTCCCCATTTTTGAGTGGCGACCCAGTTTTAGTGGCCACTCTGTCCCTGAACTGCGCTATAATGTGAATTTATGTTCACAAAAACGGACTGATGTAACTGTTAATGACTAAGGAATAGTACCTCACTGAAGTATCAAGACCCCGTTCGAGCGGTGTACATATATGGATGGAAACCTTGTCTGAGTCATCTCGAATACTAATCAATGAGGGATGTCGAGTAAGCATATCATGAACCACATAGAATAGTGGGGTTTCGGGGTTAGAGGCTCTCTGCAGCAATGTATCTCTAACACCATGGCCGAAATGAGAGATAGAGACCACGATGTTTGTGTGTAAGTAATGATGTGTGGAAAGAAAATTCTGAATGTTGGTATGATATCAGTCTAAGGGGAGTGGCTCACCTAAGAGCTACCCAAACATTTCACAGCAGACAACATAACGTACTGAGAGTAGTTGGAAGGTTCCAGAAATCAGT
modifications: Fipivirus A
B6: Hepatovirus D (nucleic acid)
DNA: CTTTGGATGCCCATAGTGCGGGGGTATAAATACCGCACTCCCTTTAGCTGTTCCGAGGGTATCGGAACCTATATGTTTGTTTTCTGTCTGTCTGTCAGCTTTATGTGTGCTCGTCCCCTTTAGGGCACTCATTTCAGCTTGCTTTCATTCTTTTCTTCCCCGGTTCTCACCTTACCGGAGGCACTGGCCGTTGCGCCCGGCGGGGTCAACCTAGTGATTAGCACTAGGCTGTAGGTGTCTAAAGTGGTGACATTAAGACTTGGTAACTGATTTCAGCACTGTTAACTGATGTTGGGGATGACTTGATTGATCTTCTGGAAGGGGTAGGCTACGGGTGAAACCCCTTATCTTAATACCACTATGTAGAGATAGATTCAGTAGGTTAAGGGCAGTGGATAAGGTTGAGTTCATTTTGGACAATAAACCTTCAACACTGGTGGACCCAATCTCACTGACCAGATGCTTTCTTGACTGATCCTTCAGAGGGGTGATTCTTCTGAATAGGTTGCCTTGACACTGATGCCTGAGACCCATTGGGTCGGGCCTTAAATCATGGAACTCCACTGGACTTTCATGGCCTAGCTTCTGCCTTAGACAGACTCTGGGGCCCCACGACCCTCTGGGCCCTTCGGGGTACTCAGGGGCATTTAGGTTTTTCCACAATTAAAAGAGTTA
modifications: Hepatovirus D
B7: Hepatovirus H2 (nucleic acid, listed as Hepatovirus sp.)
DNA: GTCATGTTTCTCTTTAAGAACACTCAATTTTGGCCATAAGTGAGACTCTTGTCGAACCTTTCATGTCAGGACCATGTTAGGGCCATTATCCTTTTCCCTGGGGCATTCTTCTTGCCCCTGTTTCATCTTTCTATCATCTTTCTTCCGGGCTCTCACAATGCCAATGGAGCGACCGATGCGCACGTCGGGGTTAACCCATGGATTAGCCATGGGCTGTAGCTGCTAAAAGTTGTGACTCCTGAAGCATACTATCAATGGTAGTAGATGTAACTGAAACACTGAAGCTTCTCTGATCTTGAAAGAAGGGTAGGCTACGGGTGAAACCCTTCAGGTTAATACTCATATTGAGAGATACCTTTGGTAGGTTAACGTTGGCGGATAATGTTGAGTTTAACGACAATAAACATTCAACGCCTGTGGGCGAACCTCACCAATTTCATGCTTTGAAGTGAATGTGCGTAGGGTCTCTATCGGAGATGCTATGTGGATGGTGCCCTCCCTGGAAACAGGTTGTAGGGGTACTCAGGTGCACTTAGGTTTCCACATTTTAAAGATTTTTC
B8: Hepatovirus C (nucleic acid)
DNA: TTCAAAAGCCCCAGCGGGGTTTCATTACCCCGCTGTGGCTTTTGGACTTCCCTAGGATGGGGAAGTAAATTACCATCCTCGCGTTTGCCGTGCGTTAACGGCTACTTTTCTTCTAGCTGTAGAAGTAAAATTCAGCATGTTTTATGTTTGTTTGTCTTGTTTGTTATATACATTTTTACACTCCTACAAATGCACATGAAGAACAGTTTGTAGAGATTAACAAACGCTTAGCTGAACCTAGGTGGTGAATCTAGTAGTAAGATAAGTAGAGGAAGCTATACCTTAAGTTGGTTGGGCCCTCGTGTTTGCTCTATAAACAAAACCAAGTGAGTAGAGTGGATGAACAGTACTAAATCCCTGAGTACAGGGAACCTCACAGGTGTGATACACTTATGTCTATGTGACCTGGTTGGAGGTTGGGCGTGCCCTATGATACTGGAGTGGGAGATCTTTTGGGGAACCCACGTTTTCACACTGCCTGATAGGGTCTTGCCGAGAGACTCACTTGTTTCGGCTGTACTTGTAAC
modifications: Hepatovirus C
B9: Fipivirus C (nucleic acid)
DNA: CGCGGTTAAACCCGCGCAACCTTCTTTCAGCCGCGTCTGAGTAGCGCGGTTAGTCCTGATACACAGTTTCCTGTTGGGTACTGTGTCTTCGGGTGAATGCTCTTGTGTGAATGTTTTAGGCTGTTTAAGGGAAGCGTTTCCCCGTGCGCTGTGAGGGTTTCTCACGCTCTTTCGGGGTGCAGTCTCTTCTGTTGTTCATTAAGATGTATGGATGCACTGTTGTGAAGGATTTGTGAACTGGGGATCGACACCCCGTGAGGGGTGCCCCAGTGTCCATAGGAGTTTGCTGGAGAGGTGTGTTGCTGTAGTGACTATCCGTGACCTGGCATTCTAAGGTGTTGACCCCAACCTGTGAGGGTCTGGATCGCAGTGTTGAAGTGCTTTGGAGGGTTCAATGGGGTTTCTGTAGTGGATATTATGTGCTTGACGACTACTGGTACGAGTGTATTGGGGGTCTACATGTGTGA
modifications: Fipivirus C

What follows are molecules tested on HEK293 cells. Details: luminescence from secreted Gluc in supernatant 24 hours after transfection of HEK293 cells; circular RNA encoding Gluc with the named IRES (UTR truncated to 675 nt).
Type: cell-based, human
In the case of B1, the Expression is reported as 1.31E+05.
Work on B2 yielded an Expression of 1.41E+05.
B3 was tested, and the Expression was 8.79E+05.
B4 was tested, and the Expression was 1.38E+05.
Molecule B5 has an Expression of 2.69E+05.
Work on B6 yielded an Expression of 1.47E+06.
Work on B7 yielded an Expression of 1.08E+05.
In the case of B8, the Expression is reported as 5.08E+05.
B9 showed an Expression of 1.09E+05.
